{"source": "paper PMC3594281"}
{"molecular_target": "T1, Hyper-IL-6 (sIL-6R/IL-6 fusion) (UniProt P08887 20-323+P05231:30-212, internal_change)", "assay": "filter binding", "units": {"Kd": "nM"}}
{"binder": "GGGAGGGAGGGAGGGA (structured_DNA)", "note": "[AID-1+A]", "Kd": "691 ± 271"}
{"molecular_target": "T1, Hyper-IL-6 (sIL-6R/IL-6 fusion)", "assay": "filter binding", "remark": "another data set of the same source", "units": {"Kd": "nM"}}
{"binder": "GGGTGGGTGGGAGGGT (structured_DNA)", "note": "[AID-1-T12A]", "Kd": "234 ± 71"}
{"binder": "GGGTGGGTGGGTGGGA (structured_DNA)", "note": "[AID-1-T16A]", "Kd": "693 ± 392"}
{"binder": "GGGUGGGUGGGUGGG (structured_RNA)", "note": "[rAID-1-U]", "Kd": "199 ± 65"}
{"binder": "GGGGAGGCUGUGGUGAUUG (structured_RNA)", "note": "[AIR-3A-G17/18U]", "binding result": "no binding"}
{"binder": "GGGTGGGAGGGTGGGT (structured_DNA)", "note": "[AID-1-T8A]", "Kd": "316 ± 59"}
{"binder": "GGGTGGGTGGGTGGG (structured_DNA)", "note": "[AID-1-T]", "Kd": "127 ± 79"}
{"binder": "GTTTGTGTTTGTGTGT (ssDNA)", "note": "[NK3]", "binding result": "no binding"}
{"binder": "GTGGTGGGTGGGTGGGT (structured_DNA)", "note": "[T30175]", "Kd": "293 ± 94"}
{"binder": "GGGTGGGTGGGTGGGT (structured_DNA)", "note": "[AID-1 (T30923)]", "Kd": "209 ± 96"}
{"binder": "GGGUGGGUGGGUGGGU (structured_RNA)", "note": "[rAID-1]", "Kd": "208 ± 53"}
{"binder": "GGGGAGGCUGUGGUGAGGG (structured_RNA)", "note": "[AIR-3A]", "Kd": "82 ± 9"}
{"binder": "GGGAGGGTGGGTGGGT (structured_DNA)", "note": "[AID-1-T4A]", "Kd": "420 ± 160"}
{"binder": "GGGUGUGUGGGUGGGU (structured_RNA)", "note": "[rAID-1-G6U]", "binding result": "no binding"}
{"molecular_target": "T1, Hyper-IL-6 (sIL-6R/IL-6 fusion)", "assay": "filter binding", "remark": "another data set of the same source"}
{"binder": "GTGTGTGTGTGTGTGT (ssDNA)", "note": "[PolyGT]", "binding result": "no binding"}
{"binder": "GGTTGGGTGGGTGGGT (structured_DNA)", "note": "[AID-1-G3T]", "binding result": "no binding"}
{"binder": "GGGTGGGTGTGTGGGT (structured_DNA)", "note": "[AID-1-G10T]", "binding result": "no binding"}
{"binder": "GGTTGGTGTGGTTGG (structured_DNA)", "note": "[TBA]", "binding result": "no binding"}
{"binder": "GTGTGGGTGGGTGGGT (structured_DNA)", "note": "[AID-1-G2T]", "binding result": "no binding"}
{"binder": "GGGGAGGCUGUGGUGAUGG (structured_RNA)", "note": "[AIR-3A-G17U]", "binding result": "no binding"}
{"binder": "GGTGGTGGTGGT (structured_DNA)", "note": "[d(GGT)4]", "binding result": "no binding"}
{"binder": "GGGTGTGTGGGTGGGT (structured_DNA)", "note": "[AID-1-G6T]", "binding result": "no binding"}
{"binder": "TGGTGGGTGGGTGGGT (structured_DNA)", "note": "[AID-1-G1T]", "binding result": "no binding"}
{"binder": "GGGTGGGTGGGTGTGT (structured_DNA)", "note": "[AID-1-G14T]", "binding result": "no binding"}
{"binder": "GGGTGAGTGGGTGGGT (structured_DNA)", "note": "[AID-1-G6A]", "binding result": "no binding"}
{"binder": "GGGGTGGGGTGGGGTGGGGT (structured_DNA)", "note": "[d(GGGGT)4]", "binding result": "no binding"}
{"binder": "GGGTGAGTGGGTGAGT (ssDNA)", "note": "[AID-1-G6A/G14A]", "binding result": "no binding"}
{"molecular_target": "IL-6 (human, UniProt P05231 30-212)", "sequence (P05231 30-212)": "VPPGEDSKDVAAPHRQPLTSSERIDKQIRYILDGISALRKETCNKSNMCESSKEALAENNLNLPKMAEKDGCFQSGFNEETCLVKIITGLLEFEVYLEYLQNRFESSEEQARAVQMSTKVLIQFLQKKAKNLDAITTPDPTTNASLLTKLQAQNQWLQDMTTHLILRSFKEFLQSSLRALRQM", "assay": "filter binding"}
{"binder": "GTGGTGGGTGGGTGGGT (structured_DNA)", "note": "[T30175]", "binding result": "no binding"}
{"binder": "GGGTGGGTGGGTGGGT (structured_DNA)", "note": "[AID-1 (T30923)]", "binding result": "no binding"}
{"molecular_target": "thrombin (UniProt P00734;P00734 328-363;364-622)", "assay": "filter binding"}
{"binder": "GGGTGGGTGGGTGGGT (structured_DNA)", "note": "[AID-1 (T30923)]", "binding result": "no binding"}
{"molecular_target": "T1, Hyper-IL-6 (sIL-6R/IL-6 fusion)", "assay": "SPR", "units": {"Kd": "nM"}}
{"binder": "GGGTGGGTGGGTGGGT (structured_DNA)", "note": "[AID-1 (T30923)]", "Kd": 490}
